Assay results reported in the nanobody polyreactivity screen of Harvey et al. (2022).

Assay: yeast display, Sf9 membrane polyspecificity reagent, FACS + sequencing; frameworks hold sequencing errors
How it was run: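 Nanobodies came from a synthetic yeast display library in Saccharomyces cerevisiae BJ5465, induced with galactose for 36–48 hours and stained for 1 hour at 4 °C with 10% biotinylated, detergent-solubilized Sf9 membrane reagent. Cells were enriched on streptavidin microbeads and then FACS-sorted, with low and high (top ~1%) gates set on anti-HA fluorescence for expression and streptavidin fluorescence for reagent binding. Each polyreactivity label reflects the gate a clone came from. Genes were amplified by colony PCR, sequenced by MiSeq 2 × 250 and filtered by CDR length.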

Sequence	polyreactivity (PSR sort gate)
QVQLVESGGGLVQAGGSLRLSCAASGSISDSYAMGWYRPAPGKERELVAAITSGDSTYYADSVKGRFTISRDNAKNTVYLQMNSLKPEDTAVYYCAKRVSRVRGYGFTDWSEYDYWGQGTQVTVSS	low polyreactivity
QVQLVESGGGLVQAGGSLRLSCAASGSISFLYTMGWYRQAPGKERELVAAITGSTASTYYADSVKGRFTISRDNAKNTVYLQMNSLKPEDTAVYYCAAYWYAEGYWVSRDYWGQGTQVTVSS	low polyreactivity
QVQLVESGGGLVQAGGSLRLSCAASGSISGINAMGWYRQAPGKERELVAAISRRAGSTYYADSVKGRFTISRDNAKNTVYLQMNSLKPEDTAVYYCAAENFYPYTYYASDYWGQGTQVTVSS	high polyreactivity
QVQLVESGGGLVQAGGSLRLSCAASGSISGIYAMGWYRQAPGKERELVAAISRGGSTNYADSVKGRFTISRDNAKNTVYLQMNSLKPEDTAVYYCAARTAYYPYRQRYYYWGQGTQVTVSS	high polyreactivity
QVQLVESGGGLVQAGGSLRLSCAASGSISGSYAMGWYRQAPGKERELVASITTSGGGTYYADSVKGRFTISRDNAKNTVYLQMNSLKPEDTAVFYCAVEYGYPYAGLDYWGQGTQVTVSS	low polyreactivity
QVQLVESGGGLVQAGGSLRLSCAASGSISGYNAMGWYRQAPGQERELVAAIYRSDGTDYADSVKGRFTISRDNAKNTVYLQMNSLNPEDTAVYYCNADKWSVVGYVRGFYRDDYWGQGTQVTVSS	low polyreactivity
QVQLVESGGGLVQAGGSLRLSCAASGSISGYYAMGGYRQAPGKERELVASIRYTGARTYYADSVKGRFTISRDNAKNTVYLQMNSLKPEDTAVYYCAADVKRDRVWGGDYWGQGTQVTVSS	low polyreactivity
QVQLVESGGGLVQAGGSLRLSCAASGSISGYYAMGWYSQAPVKERELVASIRYTGARTYYADSVKGRFTISRDNAQNTVYLQMNSLKPEDTAVYYCAADVKRDRVWGGDYWGQGTQVTVSS	low polyreactivity
QVQLVESGGGLVQAGGSLRLSCAASGSISKINAMGWYRQAPGKERELVAAINTGDSTYYADSVKGRFTISRDNAKNTVYLKMNSLKPVDSAVYYCAAEGSPTGYDYWGQGTQVTVTS	low polyreactivity
QVQLVESGGGLVQAGGSLRLSCAASGSISLVYAMGWYRQATGKERELVAVINHADDTSYADSVKGRFTISRDNAKNTVYLQMNSLKPEDTADYYCAAESSYFVALTQFYTVEFYYWGQGTQLTVSS	low polyreactivity
QVQLVESGGGLVQAGGSLRLSCAASGSISNQYVMGWYRQAPGKERELVAAIRVIGGSTSYADSVKGRFTISRDNAKNTVYLQMNSLKPEDTAVYYCAADWAWTISDGYYYGYPQYDYWGQGTQVTVSS	high polyreactivity
QVQLVESGGGLVQAGGSLRLSCAASGSISPANTMGWYRQAPGKEREFVAGISRRGGRTYYADSVKGRFTISRDNAKNTVYLQMNSLIPEDTAVYYCATALIVRGPSRYEYWGQGTQVTVSS	high polyreactivity
QVQLVESGGGLVQAGGSLRLSCAASGSISPQNVMGWYRQAPGKERELVAAITGGGSTNYADSVKGRFTISRDNAKNTVYLQMNSLKPEDTAVYYCAVYRRYLPYDYWGQGTQVTVSS	low polyreactivity
QVQLVESGGGLVQAGGSLRLSCAASGSISRVYTMGWYRQAPGKQRELVAVIRRSSGSTYYADSLKGRFTISRDNAKNTVYFQMNSLKPEDTAVYYCAARGYYSGQTTIGMDYWGQGTQVTVSS	low polyreactivity
QVQLVESGGGLVQAGGSLRLSCAASGSISSVYGMGWYRQAPGKERELVAAITSNGGSTYYADSVKGRFTISRDNAKNTVYLQMNSMKPEDTAVYYCAAKYGSRGYYSRGRYYWGQGTQVTVSS	high polyreactivity
QVQLVESGGGLVQAGGSLRLSCAASGSISSYAMGWSRQAPGKERELVASITWHGGGTYYADSVKGRFTISRDNAKNTVYLQMNSLKPEDTAVYYCAKDNYLDPPYFYRFAGYDYCGQGTQVTVSS	low polyreactivity
QVQLVESGGGLVQAGGSLRLSCAASGSISTYYAMGWYRPAPGKERDLVAAISKSGGSKYYADSVKGRFTISRDNAKNTVYLQMNSLKPEDTAVYYCAARYKGRAFWMDYWGQGTQVTVSS	high polyreactivity
QVQLVESGGGLVQAGGSLRLSCAASGSISVANAMGWYRQAPGKERELVAGITSSGSTYYADSVKGRFTISRDNAKNTVYLQMNSLKPEDTAVYYCNADVHYSTFYTVVVSLYYWGQGSQVTVSS	low polyreactivity
QVQLVESGGGLVQAGGSLRLSCAASGSISVVNMGWYRQAPGKERELVASITSSGSTTYADSVKGRFTISRDNAKNTVYLQMNSLKPEDTAVYYCAADVGTDYTYQHPAGAAYDYWGQGTQVTVSS	low polyreactivity
QVQLVESGGGLVQAGGSLRLSCAASGSISVYNAMGWYRQAPGKERELVAAISWSGGRTSYADSVKGRFTISRDNAKITVYLQMNSLKPEDTALYYCAADELTVLWDEDYWGQGTQVTVSS	low polyreactivity
QVQLVESGGGLVQAGGSLRLSCAASGSISVYYAMGRYRQAPGKERELVASIRYTGGRTYYADSVKGRFTISRDNAKNTVYLQMNSLKPEDTAVYYCAADVKRDRVWGGDYWGHGTQVTVSS	low polyreactivity
QVQLVESGGGLVQAGGSLRLSCAASGSISWYYAMGWYRQAPGKERELVAAISDSGGDTYYADSVKGRFTISRDNAKNTVYLQMNSLKPEDTAVYYCAAQYRGSYRTTYDYWGQGTQVTVSS	low polyreactivity

Sequence	polyreactivity (PSR sort gate)
QVQLVESGGGLVQAGGSLRLSCAASGSISYLYAMGWYRQAPGKERELVAAISRSGASTYYADSVKGRFTISRDNAKNTVYLQMNSLKPEDTAVYYCAAYKIWGRVRYDYWGQGTQVTVSS	low polyreactivity
QVQLVESGGGLVQAGGSLRLSCAASGSISYQNAMGWYRQATGKERELVAAISGDGDSMYYADSVKGRFTISRDNAKNTVYLQMNSLKPEDTAVYYCAAEPNVYFSVFVLFPSDYWGQGTQVTVSS	low polyreactivity
QVQLVESGGGLVQAGGSLRLSCAASGSISYRYAMGWYRQAPGKERELVAGISRSGGSTSYADSVKGRFTISRDNAKNTVYLQMNSLKPEDTAVYYCNRPSSLAWPWTGSFSRYDYWGQGTQVTVSS	low polyreactivity
QVQLVESGGGLVQAGGSLRLSCAASGSISYVNAMGWYRQAPGKERELVAAITGGGSTNYADSVKGRFTISRDNAKNTVYLQMNSLKPEDTAVYYCNSGDSTGEVIGDYWGQGTQVTVSS	low polyreactivity
QVQLVESGGGLVQAGGSLRLSCAASGSISYYAMGWYRQAPGKERELVAAISSSGGSTYYADSVKGRFTISRDNAKNTVYLQMNSLKPEDTAVYYCAAYGRYGAHTGYGSWGQGTQVTVSS	high polyreactivity
QVQLVESGGGLVQAGGSLRLSCAASGSIVIINTMGWYRQAPGKERELVAAISWGGTDTNYADSVKGRFTISRDNAKNTVYVQMNSLKPEDTAVYYCNTDQDLVRSYDYWGQGTQVTVSS	low polyreactivity
QVQLVESGGGLVQAGGSLRLSCAASGSIVTANAMAWYRPAPGKERELVAAITTSGTSTYYADSVKGRFTLSRDNAKNTVYLQMNSLKPEDTSVYYCNADKFYRAGSELDYWGQGTQVTVSS	high polyreactivity
QVQLVESGGGLVQAGGSLRLSCAASGSIVVKYDMSWYRQAPGKERELVAAISGSGGSTYYADSVKGRFTISRDNAKNTVYLQMNSVKPEDTAVYYCAADDYFYSGRYGFEYWGQGTQVTVSS	low polyreactivity
QVQLVESGGGLVQAGGSLRLSCAASGSIVVNNGMGWYRQAPGKERELVATISERGGGTYYADSVKGRFTISRDNAKNTVYLQMNSLKPEDTAVYYCAARVPRFYFVPLYYWGQGTQVTVSS	low polyreactivity
QVQLVESGGGLVQAGGSLRLSCAASGSIVWYNAMGWYRPAPGKERELVAAITWSGGSTYYADSVKGRFTISRDNAKNTVYLQMNSLKPEDTAVYYCAADVKRDRVWGGDYWGQGTQVTVSS	low polyreactivity
QVQLVESGGGLVQAGGSLRLSCAASGSIYNRYAMGSYRQAPRQERELVAAITQSTDSTYYADSVKGRITISRDNAMITVYLQMNSLKPEDTAVYYCAAYLVYYRPYAYGYWGQGTQVTVSS	low polyreactivity
QVQLVESGGGLVQAGGSLRLSCAASGSIYPNAMGWNRQAPGKERELVAAIRRSSGSTYADSVKGRFTISRDNAKNTVYLQMNSLKPEDTAVYYCAAEWFAQPVGYDYWGQGTQVTVSS	high polyreactivity
QVQLVESGGGLVQAGGSLRLSCAASGSIYPYNAIGLYRQAPGKERELVAAISYRGGRTYYADSVMGRFTISRDNAKNTVYLQKNSLKPEDTAVYYCNADSIYSARGWLYGYWGQGTQVTVSS	low polyreactivity
QVQLVESGGGLVQAGGSLRLSCAASGSIYRYAMGWYRQAPGKERELVAAINFNGGRTYYADSVKGRFTISRDNAKNTVYLQMNSLKPEDTAVYYCAAVRSSNQGGFDYWGHGTQVTVSS	high polyreactivity
QVQLVESGGGLVQAGGSLRLSCAASGSIYTHNAMGWSRQAPGKERELVAAISSGGSTNYADSVKGRFTISRDNAKNTVYLQMNSLKPEDTAVYYCAKSIDGWYWRRRRYDYWGQGTQVTVSS	low polyreactivity
QVQLVESGGGLVQAGGSLRLSCAASGSIYTNAMGRYRQAPGKERELVAAISWSGGRTYYADSVKGRFTISRDNAKNTVYLQMNILKPEDTAVYYCNTRGTRIASGHYYWGQGNQVTVSS	high polyreactivity
QVQLVESGGGLVQAGGSLRLSCAASGSIYTNAMGWYRQAPGKERELVAAISWSGGRTYYADSVKGRFTISRDNAKNTVYLQMNSLKPEDTAVYYCNTRGTRIASGHYYWGQGTQVTVSS	high polyreactivity
QVQLVESGGGLVQAGGSLRLSCAASGSIYTWYAMVWYRQAPGKERELVAAITRGGSTYADSVKGRFTISRDNAKNTVFLQMNSLKPEDTAVYYCATDLQPRSFLYWYNYWGQGTQVTVSS	low polyreactivity
QVQLVESGGGLVQAGGSLRLSCAASGSIYVYYGMGWYRQAPGKERELVAAISSGGSTHYADSVKGRFTISRDNAKNTVYLQMNSLKPEDTAVYYCAADRFFWLRSYPRYYYWGQGTQVTVSS	low polyreactivity
QVQLVESGGGLVQAGGSLRLSCAASGSIYWINTSMGWYIQAPGKERELVAAITWSSGGTYYADSVKGRFTISRDNAKKTVYLQMNSLKPEDTAVYYCAKVRFFWYRMGYWGQGTQVTVSS	high polyreactivity
QVQLVESGGGLVQAGGSLRLSCAASGSIYYAMGWYRQAPGKEREFVAAINSGGSTYYADSVKGRFTISRDNAKNTVYIQMNSLKPEDTAVYYCAKPTYRFYWGDFDYWGQGTQVTVSA	low polyreactivity
